Assay results as given in article PMC7312448.

Molecular target: MavC (wild type) (L. pneumophila)
Assay: SEC

With MavC (wild type) (enzyme) the stoichiometry N was 2.
